The text below walks through data of patent US20110293599A1 (EWHA UNIVERSITY INDUSTRY COLLABORATION FOUNDATION, published 2011).

The target in assay [1] is T1, Flag-tagged TAZ (transcriptional coactivator with PDZ-binding motif), full length (1-395 aa) (Mus musculus (Mouse), UniProt Q9EPK5 1-395).
T1 construct: also called TAZ FL; Flag-TAZ; not shown: Flag tag
The experiment in a line: co-immunoprecipitation from 293T cells, Flag-M2 beads, immunoblot. A general note: In western blotting, separated proteins are transferred to a membrane and probed.

Assay [2] concerns the target T2, Myc-tagged MyoD, full length 318 aa (FL) (UniProt P10085 1-318).
T2 construct: Overexpressed in 293T cells; also called MyoD FL; not shown: Myc tag from the pCMV-Myc vector
T2 sequence (looked up): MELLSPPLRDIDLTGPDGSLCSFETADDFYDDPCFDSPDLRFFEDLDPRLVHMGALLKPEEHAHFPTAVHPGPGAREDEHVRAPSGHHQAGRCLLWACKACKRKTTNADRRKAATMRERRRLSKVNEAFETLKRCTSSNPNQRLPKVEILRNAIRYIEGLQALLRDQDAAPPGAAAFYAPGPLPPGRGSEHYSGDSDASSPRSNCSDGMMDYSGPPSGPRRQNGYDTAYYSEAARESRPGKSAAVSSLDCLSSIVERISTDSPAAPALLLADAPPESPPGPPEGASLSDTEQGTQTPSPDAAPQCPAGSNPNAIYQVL
Briefly: co-immunoprecipitation from 293T cells, Flag-M2 beads, MyoD immunoblot.

B1: NT MyoD (MyoD aa 1-102), Myc-tagged (other, UniProt P10085 1-102, looked up)
chain: MELLSPPLRDIDLTGPDGSLCSFETADDFYDDPCFDSPDLRFFEDLDPRLVHMGALLKPEEHAHFPTAVHPGPGAREDEHVRAPSGHHQAGRCLLWACKACK
notes: Coexpressed with Flag-TAZ in 293T cells; not shown: Myc tag from the pCMV-Myc vector
Regarding B1, in assay [1], the binding result is on record as “no binding”.

B2: TAZ truncation ΔN2 (aa 164-395 TAZ), lacking the WW domain (other)
chain: NHVNLHPSITSTSVPQRSMAVSQPNLAMNHQHQQVVATSLSPQNHPTQNQPTGLMSVPNALTTQQQQQQKLRLQRIQMERERIRMRQEELMRQEAALCRQLPMETETMAPVNTPAMSTDMRSVTNSSSDPFLNGGPYHSREQSTDSGLGLGCYSVPTTPEDFLSNMDEMDTGENSGQTPMTVNPQQTRFPDFLDCLPGTNVDLGTLESEDLIPLFNDVESALNKSEPFLTWL
notes: Cotransfected with MyoD into 293T cells; not shown: Flag tag, implied by the precipitation with Flag-M2 beads
Turning to B2, in assay [2], the binding result is “no binding”.
